Assay [1] has as its target TNFR2 immobilized on the SPR sensor chip (channel 1) (UniProt P20333). Briefly: SPR (FastStep kinetic assay); right panel is TNFR2; key printed as TNFR1. To be noted: designed binder.
Assay [2] has as its target TNFR1 immobilized on the SPR sensor chip (channel 3) (UniProt P19438). As to the kind of experiment: SPR (FastStep kinetic assay).
In assay [3] the target is TNFR2 immobilized on the SPR sensor chip (channel 1) (UniProt P20333). As to the kind of experiment: SPR (FastStep kinetic assay). To be noted: ligand.

Among the data in US20140045756A1 are Kd values, retold here.

As usually defined, the Kd is the constant that tells how readily two partners part at equilibrium.

TNFR1 immobilized on the SPR sensor chip (channel 3), sequence (P19438 30-211): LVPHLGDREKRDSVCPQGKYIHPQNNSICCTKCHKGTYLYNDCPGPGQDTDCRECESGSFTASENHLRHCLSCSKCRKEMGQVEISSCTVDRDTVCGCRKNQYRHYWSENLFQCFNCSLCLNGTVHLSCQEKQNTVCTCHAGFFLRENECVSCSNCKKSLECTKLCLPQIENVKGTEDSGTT
Recombinant human PGRN (rhPGRN), sequence (P28799 18-593): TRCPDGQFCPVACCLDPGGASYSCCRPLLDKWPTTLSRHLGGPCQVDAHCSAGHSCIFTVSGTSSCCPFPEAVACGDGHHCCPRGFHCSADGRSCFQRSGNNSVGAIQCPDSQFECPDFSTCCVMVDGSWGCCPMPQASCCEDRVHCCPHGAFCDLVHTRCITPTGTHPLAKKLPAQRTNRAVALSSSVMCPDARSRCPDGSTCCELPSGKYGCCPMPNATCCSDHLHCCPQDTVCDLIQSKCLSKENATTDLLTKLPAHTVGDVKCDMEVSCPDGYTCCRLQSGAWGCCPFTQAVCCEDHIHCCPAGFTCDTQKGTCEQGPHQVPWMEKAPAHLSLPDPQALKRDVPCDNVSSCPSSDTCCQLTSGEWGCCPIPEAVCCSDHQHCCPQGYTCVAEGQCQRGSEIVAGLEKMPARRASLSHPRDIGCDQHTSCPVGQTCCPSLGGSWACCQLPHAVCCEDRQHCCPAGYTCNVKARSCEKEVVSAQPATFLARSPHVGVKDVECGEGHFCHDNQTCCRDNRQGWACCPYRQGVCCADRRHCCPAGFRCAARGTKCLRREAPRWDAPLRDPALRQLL

Take “Atsttrin-α1 (Antagonist of TNF/TNFR Signaling via Targeting to TNF Receptors-α1), recombinant”: the Kd is 90.2 nM in assay [1] and 142 nM in assay [2] (designed binder).

Consider “Recombinant human PGRN (rhPGRN) (from UniProt P28799 18-593)”, for which the Kd amounted to 1.52 nM in assay [3] and 1.77 nM in assay [2] (ligand).
